From patent CN114790245A

Target: 血浆激肽释放酶(plasma kallikrein,PK) (human) (UniProt P03952)
Experiment: cell-based or functional assay

Chain of UniProt P03952 (P03952 20-638 limits assumed): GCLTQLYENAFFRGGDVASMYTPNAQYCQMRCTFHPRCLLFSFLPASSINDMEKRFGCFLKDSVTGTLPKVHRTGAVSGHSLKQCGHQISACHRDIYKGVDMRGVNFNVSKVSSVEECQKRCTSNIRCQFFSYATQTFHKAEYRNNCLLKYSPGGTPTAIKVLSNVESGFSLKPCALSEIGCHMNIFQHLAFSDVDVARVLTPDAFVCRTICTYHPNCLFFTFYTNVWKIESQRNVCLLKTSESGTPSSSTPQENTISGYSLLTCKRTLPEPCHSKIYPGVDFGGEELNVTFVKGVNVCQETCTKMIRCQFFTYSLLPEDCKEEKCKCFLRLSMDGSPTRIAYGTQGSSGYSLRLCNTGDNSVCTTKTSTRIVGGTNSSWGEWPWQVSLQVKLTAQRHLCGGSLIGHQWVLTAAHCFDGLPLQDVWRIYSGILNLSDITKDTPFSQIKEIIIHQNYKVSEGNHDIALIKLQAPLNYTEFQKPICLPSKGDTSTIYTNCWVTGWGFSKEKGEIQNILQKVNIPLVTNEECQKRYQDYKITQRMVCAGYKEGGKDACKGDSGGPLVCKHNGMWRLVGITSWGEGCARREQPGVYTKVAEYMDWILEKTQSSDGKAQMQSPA

IC50(nM), PK activity in human plasma activated with Factor XIIa (H-Pro-Phe-Arg-AMC): 1.17 nM
IC50(nM), PK enzyme activity on H-Pro-Phe-Arg-AMC (fluorescence): 0.99 nM
Substance: MHL(Lanadelumab) (antibody)
